# B1: mtON: fusion of the 187 N-terminal amino acids of mouse IMMT1 to the light-activated proton pump (Mac) from Leptosphaeria maculans (protein)
# chain: MLRACQLSGVTVAAQSCLCGKFVLRPLRPCRRYSTSSSSGLTAGKIAGAGLLFVGGGIGGTILYAKWDSHFRESVEKTIPYSDKLFGMVLGSAPYTVPLPKKPVQSGPLKISSVSEVMKDSKLPVAQSQKTKGDTPASAASTGAAQIISAAGDTLSVPAPAVQHEDTIKTECPNTNEGKSTSETTEEPAGLIVDQFEEVLMKTSQLFPLPTATQSAQPTHVAPVPTVLPDTPIYETVGDSGSKTLWVVFVLMLIASAAFTALSWKIPVNRRLYHVITTIITLTAALSYFAMATGHGVALNKIVIRTQHDHVPDTYETVYRQVYYARYIDWAITTPLLLLDLGLLAGMSGAHIFMAIVADLIMVLTGLFAAFGSEGTPQKWGWYTIACIAYIFVVWHLVLNGGANARVKGEKLRSFFVAIGAYTLILWTAYPIVWGLADGARKIGVDGEIIAYAVLDVLAKGVFGAWLLVTHANLRESDVELNGFWANGLNREGAIRIGEDDGAR
# modifications: Synthetic Complete mtON fusion protein sequence
# What was measured:
# C. elegans [1] = test: ETC inhibitor assays, survival of animals; type: in vivo, Caenorhabditis elegans
# Protocol: Experiments were performed on at least three separate days, using 15-100 young adult animals per plate. Seeded plates were supplemented with rotenone (50 μM final concentration), antimycin A (50 μM final concentration), or oligomycin A (31 μM final concentration) 24 h before animals were transferred onto them. For azide toxicity, animals were placed in M9 buffer with 250 mM azide. Control plates were kept in the dark, and experimental plates were exposed to 1 Hz light (Quantum LED, 0.02 mW/mm^2) for the duration of the experiment. For all toxins, animals that were moving or those that moved in response to a light touch to the head were scored as alive. For rotenone, surviving animals were scored after 5 h. For antimycin A, animals were scored 16 h after exposure. For azide, animals were exposed for 1 h in M9 and allowed to recover for 1 h on a seeded culture plate and then survival was scored. Azide experimental plates were exposed to light (XCite LED, 0.19 mW/mm^2) for the duration of azide treatment and recovery. […]. For oligomycin A, animals were scored 18 h after exposure.
# Experiments were carried out using a hypoxic chamber (Coy Laboratory Products, 5%/95% H2/N2 gas, palladium catalyst) at 26° C. with 50-100 animals per plate. O2 was <0.01%. Hypoxic preconditioning (PC) duration was 4 h, and control animals were incubated at 26° C. in room air for the same time. 1 Hz illumination (Quantum LED, 0.02 mW/mm^2) was carried out during PC period or during the hypoxic period. Hypoxic exposure was for 18.5, 21 h after PC. Twenty-four hours after hypoxia exposure, animals that were moving or those that moved in response to a light touch to the head were scored as alive. Data from days where PC was at least 15% effective for both +ATR and −ATR were used. Animals supplemented with ATR were allowed to lay eggs onto plates with no ATR that were subsequently used for HR experiments to minimize confounding effects of ATR. ATR from the parent animal was sufficient to provide active mtON in progeny as tested by the azide toxin assay described above. […] FCCP dissolved in ethanol was deposited onto seeded NGM plates.
# C. elegans [2] = test: In vivo mitochondrial membrane potential (TMRE) in aged animals; design: species or system Caenorhabditis elegans
# Protocol: FIG. 8 is a composite of drawings showing that mtON restores lost membrane potential and increases lifespan. […] One-way ANOVA with Tukey's post hoc test for multiple comparisons, *p<0.05. Data are means±standard error of the mean. Panel B) mtON activation throughout adult life extends lifespan (n=?). […] Log rank Mantel Cox test for survival comparison, p=0.018.
# Panel A) Representative images of day 4 adult animals exposed to 100 nM TMRE for 24 hours. Pharynx region of interest (ROI) is outlined in dotted white lines. All animals were expressing mtON through single-copy CRISPR/Cas9 insertion to the genome. Panel B) Quantification of TMRE fluorescence in mtON-expressing day 4 adult animals exposed to 100 nM TMRE for 24 hours. Whole-body fluorescence as well as pharynx ROIs were quantified. Control represents animals exposed to light but without ATR supplementation. Statistics are student's two tailed unpaired t tests. * p<0.001.
# Scale bar, 250 μm. c, Quantification of relative TMRE fluorescence. One-way analysis of variance (ANOVA) with Tukey's multiple comparisons test, day 1 versus day 4, P=0.0001, day 1 versus day 10, P=0.0002, n=44, 18 and 30. Data are median±quartiles (dotted lines). d, Pharynx TMRE fluorescence normalized to mitochondrial mass in day 4 worms. […]
# C. elegans [3] = test: Mitochondrial mass and unfolded protein response (staining, quantitative proteomics); type: in vivo, Caenorhabditis elegans
# Protocol: Scale bar is 10 μm. Experiment was performed 3 times with similar results. […] Scale bar is 10 μm. Experiment was performed 3 times with similar results. C) Relative pharynx TMRE fluorescence in mtON (ex. array) animals stained at day 4 of adulthood under the indicated conditions. One-way ANOVA with Tukey's test, *p=0.0001, n=33, 34, 26, 35 animals for each bar from left to right. D) Relative pharynx MitoTracker fluorescence in animals stained at day 4 of adulthood.
# Genes encoding proteins are as follows. Complex I: nuo-1, nuo-5. complex II: sdha-1, mev-1, sdhb-1. Complex III: isp-1. Complex IV: cox-5a. ATP synthase: R04F11.2, atp-5. Translocase of the outer membrane (TOM70): tomm-70. VDAC: vdac-1. Uniprot C. elegans proteome database protein codes are presented above each plot. B) Proteins that mediate the mitochondrial unfolded protein response are not affected by mtON activation, two-tailed unpaired t test, −ATR n=5, +ATR n=4 biological replicates. Genes encoding proteins are hsp-6 and hsp-60.
# [4] = system: isolated C. elegans mitochondria; test: Mitochondrial O2 consumption (Clark-type electrode); type: biochemical, Caenorhabditis elegans; details: isolated mitochondria fueled with substrates, mtON activated
# Protocol: O2 consumption was measured using a Clark-type O2 electrode (S1 electrode disk, DW2/2 electrode chamber and Oxy-Lab control unit, Hansatech Instruments, Norfolk UK) at 25° C. Isolated mitochondria were stirred in MRB at 1 mg/ml with 1 mg/ml fat-free BSA. Substrates and inhibitors were added by syringe port (100 μM ADP, 2 μM rotenone, 5 mM succinate). Given excess succinate as substrate for ETC respiration, we measured the amount of O2 required to convert 50 nmol of ADP to ATP and established a baseline for comparison. To test mtON activity, mitochondria were illuminated as in the ATP measurement, for 1, 5, or 10 min in the presence of ADP without succinate to allow for mtON conversion of ADP to ATP. Any remaining ADP was then converted using 02-dependent ETC respiration upon succinate addition. Slopes were calculated from plots of O2 concentration versus time to give rates of 02 consumption during ADP respiration, ADP+succinate respiration, and respiration after ADP had been entirely consumed. The intersections of these three rates were used to calculate total amount of O2 consumed during ADP+succinate respiration. Light activation of mitochondria (XCite LED, 0.02 mW/mm^2) during ADP respiration alone was carried out for differing lengths of time to test the ability of mtON to drive ADP consumption before succinate was added. […]
molecule,measurement,setting,value
B1,survival,"C. elegans [1]; 31 μM oligomycin A, scored 18 hours later",No significant differences
same,survival,"C. elegans [1]; 50 μM rotenone for 5 hours, +ATR +light",greater than the ATR alone effect
same,survival,"C. elegans [1]; azide toxin assay, progeny of ATR-supplemented parents, +ATR +light",66.8%
same,survival of animals exposed to ETC toxins,C. elegans [1]; mtON active vs controls,survived more
same,whole-animal measures of PMF,C. elegans [2]; mtON activation for 4 days into adulthood vs age-matched controls,significantly increased
same,age-related decline of Δψm,"C. elegans [2]; mtON activation, two different genetic backgrounds",reversed that decline
same,targets of the mitochondrial unfolded protein response,C. elegans [3]; after mtON activation,did not change
same,mitochondrial mass,C. elegans [3]; mitochondrial staining and quantitative proteomics,did not impact mitochondrial mass
same,oxygen needed to make ATP,[4],decreased reliance on oxygen to make ATP

# — patent US20260167679A1, “FUSION PROTEIN TARGETING MITOCHONDRIA, METHOD OF MAKING AND USE THEREOF” (UNIVERSITY OF ROCHESTER, priority 2020, published 2026)
